Reference: US20240398942A1 (CHIA TAI TIANQING PHARMACEUTICAL GROUP, published 2024)
Where two headings read alike, the source gives them in different places.

Key:
[1] = biological target: T1, recombinant human CD40-his (Acro biosystems, Cat. No. CD0-H5228) (human, UniProt P25942 21-193); test: SPR (Biacore T200), antibody captured, CD40-his as analyte, 1:1 fit
T1 construct: Bought protein; also called human CD40-his protein; not shown: His tag

[2] = biological target: T2, cynomolgus monkey CD40-his protein (Acro biosystems, Cat. No. CD0-C52H6) (cynomolgus monkey, UniProt G7PG38 21-193); test: as above
T2 construct: Bought protein; not shown: His tag

[3] = biological target: T1, recombinant human CD40-his (Acro …); test: as above; remark: listed apart in the source
Source text: (§1) Briefly, a goat anti-human IgG (GE Healthcare, Cat. No. BR100839, human antibody capture kit) was covalently linked to a CM5 chip (GE Healthcare, Cat. No. BR100530, carboxymethylated dextran-coated chip) via the primary amine group using a standard amine coupling kit supplied by Biacore (GE Healthcare, Pittsburgh, PA, USA). Unreacted portions on the biosensor surface were blocked with ethanolamine. Then, the anti-CD40 antibody of the present application and two benchmark antibodies (BM1 (dacetuzumab, Genentech Inc., also referred to CD40-BM1, prepared in-house; the heavy and light chain amino acid sequences are set forth in SEQ ID NOs: 40 and 41, respectively) and BM2 (selicrelumab, Abgenix Inc., also referred to CD40-BM2, prepared in-house; the heavy and light chain amino acid sequences are set forth in SEQ ID NOS: 42 and 43, respectively)) at a concentration of 66.67 nM were directed through the chip at a flow rate of 10 μL/min. Then, serially diluted recombinant human CD40-his (Acro biosystems, Cat. No. CD0-H5228, serially 2-fold diluted from 80 nM in HBS-EP⁺ buffer (supplied by Biacore)) or cynomolgus monkey CD40-his protein (Acro biosystems, Cat. No. CD0-C52H6, serially 2-fold diluted from 80 nM in HBS-EP⁺ buffer (supplied by Biacore)) was directed through the chip at a flow rate of 30 μL/min. The antigen-antibody binding kinetics was tracked for 2 min and the dissociation kinetics was tracked for 10 min. The association and dissociation curves were fitted to a 1:1 Langmuir binding model using BIAcore evaluation software. KD, Kₐ, and Kd values were determined.

[4] = biological target: T2, cynomolgus monkey CD40-his protein …; test: as above; remark: listed apart in the source
Source text: as §1

[5] = biological target: T3, human CD40-Fc protein (human, biotinylated (sites not given) in the capture ELISA and the benchmark blocking ELISA; not biotinylated in the ligand blocking ELISA); test: competitive ELISA (self-competition): BM2 (selicrelumab) coated as competitor, soluble BM2 titrated and pre-mixed with biotinylated human CD40-Fc 0.23 nM, streptavidin-HRP, OD(450-630)
T3 construct: also called biotinylated human CD40-Fc
Protocol: The ability of the anti-CD40 antibody of the present application to block the binding of the benchmark to human CD40 was determined by competitive ELISA. Briefly, BM2 antibody was immobilized on a 96-well micro plates at 1 μg/mL in PBS, 100 µL/well, and incubated overnight at 4° C. The next day, the plate was washed once with a washing buffer before a blocking buffer (PBST containing 5% w/v of skim milk) was added. The plate was then incubated at 37° C. for 2 h for blocking. During the blocking of the 96-well plate, the anti-CD40 antibody of the present application or the benchmark was serially 5-fold diluted from 66.7 nM with a biotinylated human CD40-Fc protein (amino acid residues 21-193 of SEQ ID NO: 30 linked to the N terminus of amino acid residues 99-330 of SEQ ID NO: 28, dissolved in PBST containing 2.5% w/v of skim milk at a concentration of 0.23 nM) and then incubated at room temperature for 40 min. After the plate was washed 4 times, the antibody/biotinylated human CD40-Fc mixture was added at 100 μL/well to the plate coated with BM2. The plate was incubated at 37° C. for 40 min and again washed 4 times with the washing buffer. […] The absorbance was read on a microplate reader using the dual wavelength mode (TMB detection wavelength: 450 nm, reference wavelength: 630 nm). […] Data were analyzed using Graphpad Prism software, and IC₅₀ values were obtained.

Row | Binder | Kd [1] | koff [1] | kon [1] | Kd [2] | koff [2] | kon [2] | Kd [3] | koff [3] | kon [3] | Kd [4] | koff [4] | kon [4] | IC50 [5]
1 | mouse anti-CD40 monoclonal antibody C1H1 (antibody, V domains shown, Parent mouse antibody from a hybridoma; the mouse constant regions are not; also called Mouse C1H1) VH: EVKLVESGGGLVKPGASLKLSCAASGFTFSNYGISWVRQTSDKRLEWVASISSGGDNTYYPDNVKGRFTISRENAKNTLYLQMSSLKSEDTALYYCARAGEKAMDYWGQGTSVTVSS VL: DIVLTQSPVTLSVTPGDSVSLSCRASQTINNNLHWYQQKSHESPRLLIKYASQSISGIPSRFSGSGSGTDFTLSINSVETEDFGIYFCQQFSSWPLTFGAGTKLELK | 0.428 nM | 0.000897 s⁻¹ | 2.1e+06 M⁻¹ s⁻¹ | 0.377 nM | 0.000863 s⁻¹ | 2.29e+06 M⁻¹ s⁻¹ | 0.684 nM | 0.00123 s⁻¹ | 1.79e+06 M⁻¹ s⁻¹ | 0.852 nM | 0.00118 s⁻¹ | 1.39e+06 M⁻¹ s⁻¹ | –
2 | BM2 (selicrelumab) (antibody, human IgG2, kappa, V domains shown, Benchmark antibody, prepared in-house; also called CD40-BM2; benchmark) VH: not shown VL: DIQMTQSPSSVSASVGDRVTITCRASQGIYSWLAWYQQKPGKAPNLLIYTASTLQSGVPSRFSGSGSGTDFTLTISSLQPEDFATYYCQQANIFPLTFGGGTKVEIKR | – | – | – | – | – | – | – | – | – | – | – | – | 0.529 nM
